Experimental data taken from US20200317768A1 (published 2020).

T1: cynomolgus monkey FcγRIIa1 extracellular domain, C-terminal His-tag (cynomolgus monkey)
T1 construct: also called cyno FcγRIIa1; FcgRIIa1; not shown: His-tag added to the C-terminus
T1 chain: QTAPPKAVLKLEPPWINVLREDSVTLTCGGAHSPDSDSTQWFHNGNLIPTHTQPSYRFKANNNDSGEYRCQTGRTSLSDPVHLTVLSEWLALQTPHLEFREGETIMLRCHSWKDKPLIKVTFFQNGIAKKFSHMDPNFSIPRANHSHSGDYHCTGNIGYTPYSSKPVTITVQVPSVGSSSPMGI

T2: cynomolgus monkey FcγRIIa2 extracellular domain, C-terminal His-tag (cynomolgus monkey)
T2 construct: also called cyno FcγRIIa2; FcgRIIa2; not shown: His-tag added to the C-terminus
T2 chain: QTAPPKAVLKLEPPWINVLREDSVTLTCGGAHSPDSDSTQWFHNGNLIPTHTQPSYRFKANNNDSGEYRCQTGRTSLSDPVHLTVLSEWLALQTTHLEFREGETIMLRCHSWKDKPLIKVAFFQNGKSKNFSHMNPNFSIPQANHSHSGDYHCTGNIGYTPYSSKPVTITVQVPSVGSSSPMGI

T3: cynomolgus monkey FcγRIIa3 extracellular domain, C-terminal His-tag (cynomolgus monkey)
T3 construct: also called cyno FcγRIIa3; FcgRIIa3; not shown: His-tag added to the C-terminus
T3 chain: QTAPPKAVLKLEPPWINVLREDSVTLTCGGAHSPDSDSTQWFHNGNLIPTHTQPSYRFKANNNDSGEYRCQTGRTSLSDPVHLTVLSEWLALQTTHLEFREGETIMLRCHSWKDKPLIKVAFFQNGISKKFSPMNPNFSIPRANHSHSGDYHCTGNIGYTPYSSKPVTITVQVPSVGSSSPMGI

T4: cynomolgus monkey FcγRIIb extracellular domain, C-terminal His-tag (cynomolgus monkey)
T4 construct: also called cyno FcγRIIb; cynoFcγRIIb; not shown: His-tag added to the C-terminus
T4 chain: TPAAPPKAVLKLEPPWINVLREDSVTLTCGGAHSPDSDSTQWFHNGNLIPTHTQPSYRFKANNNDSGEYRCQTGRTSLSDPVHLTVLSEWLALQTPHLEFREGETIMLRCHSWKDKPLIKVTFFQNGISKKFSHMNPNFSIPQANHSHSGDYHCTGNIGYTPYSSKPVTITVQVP

T5: human FcγRIIaH extracellular domain, C-terminal His-tag (human, UniProt P12318 34-217)
T5 construct: also called human FcγRIIa (type H); FcgRIIaH; not shown: His-tag added to the C-terminus
T5 sequence: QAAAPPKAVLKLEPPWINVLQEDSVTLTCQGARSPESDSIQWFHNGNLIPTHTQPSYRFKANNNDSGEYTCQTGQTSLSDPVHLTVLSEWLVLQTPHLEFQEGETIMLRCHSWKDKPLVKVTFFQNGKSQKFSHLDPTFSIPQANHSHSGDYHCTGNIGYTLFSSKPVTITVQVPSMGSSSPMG

T6: human FcγRIIaR extracellular domain, C-terminal His-tag (human, UniProt P12318 34-217)
T6 construct: also called human FcγRIIa (type R); FcgRIIaR; not shown: His-tag added to the C-terminus
T6 chain: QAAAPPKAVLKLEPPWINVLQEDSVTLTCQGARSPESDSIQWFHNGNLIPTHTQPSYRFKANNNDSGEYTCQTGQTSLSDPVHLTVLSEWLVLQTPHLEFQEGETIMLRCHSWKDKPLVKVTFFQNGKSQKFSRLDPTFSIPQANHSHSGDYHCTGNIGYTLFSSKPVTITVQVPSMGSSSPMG


Columns and labels:
Assay in all cases: SPR (BIACORE), antibody captured, soluble FcgR as analyte, 25C
[1] = molecular target: T1, cynomolgus monkey FcγRIIa1 …
Procedure: (§1) The kinetic analysis of interactions between these antibodies and FcγR was carried out using BIACORE® T200 or BIACORE® 4000 (GE Healthcare). HBS-EP+ (GE Healthcare) was used as the running buffer, and the measurement temperature was set to 25° C. A chip produced by immobilizing Protein A. Protein A/G or mouse anti-human IgG kappa light chain (BD Biosciences) onto a Series S Sensor Chip CM4 or CM5 (GE Healthcare) by the amine-coupling method was used. […] After the measurement, the antibody captured on the chip was washed off by allowing reaction with 10 mM glycine-HCl, pH1.5 and 25 mM NaOH so that the chip was regenerated and used repeatedly. The sensorgrams obtained as measurement results were analyzed by the 1:1 Langmuir binding model using the BIACORE® Evaluation Software to calculate the binding rate constant ka (L/mol/s) and dissociation rate constant kd (l/s), and the dissociation constant KD (mol/L) was calculated from these values. […] Regarding such interactions, KD values were calculated using the following 1:1 binding model described in BIACORE® T100 Software Handbook BR1006-48 Edition AE.
(§2) The behavior of interacting molecules according to the 1:1 binding model on BIACORE® can be described by Equation 1: Req=C·R max/(KD+C)+RI, wherein, Req is a plot of steady-state binding levels to analyte concentration. C is concentration, RI is bulk refractive index contribution in the sample, and Rmax is analyte binding capacity of the surface. When this equation is rearranged, KD can be expressed as Equation 2: KD=C·Rmax/(Req−RI)−C. KD can be calculated by substituting the values of Rmax, RI, and C into Equation 1 or Equation 2. From the current measurement conditions, RI=0, C=2 μmol/L can be used.

[2] = molecular target: T2, cynomolgus monkey FcγRIIa2 …
Procedure: as §1, §2

[3] = molecular target: T3, cynomolgus monkey FcγRIIa3 …
Procedure: as §1, §2

[4] = molecular target: T4, cynomolgus monkey FcγRIIb extracellular …
Procedure: as §1, §2

[5] = molecular target: T5, human FcγRIIaH extracellular domain, …
Procedure: as §1, §2

[6] = molecular target: T6, human FcγRIIaR extracellular domain, …
Procedure: as §1, §2

[7] = molecular target: T7, human FcγRIIIaV extracellular domain, C-terminal His-tag (human, UniProt P08637 17-208)
T7 construct: also called FcgRIIIaV; not shown: His-tag added to the C-terminus
Procedure: as §1, §2

T7 sequence (P08637 17-208 F176V): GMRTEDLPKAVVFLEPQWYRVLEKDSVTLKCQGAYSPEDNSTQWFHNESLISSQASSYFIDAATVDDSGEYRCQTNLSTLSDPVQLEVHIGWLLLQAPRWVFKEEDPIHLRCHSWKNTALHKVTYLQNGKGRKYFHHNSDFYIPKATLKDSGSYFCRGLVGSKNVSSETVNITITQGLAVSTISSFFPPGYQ

Binder	Kd [1] [nM]	Kd [2] [nM]	Kd [3] [nM]	Kd [4] [nM]	Kd [5] [nM]	Kd [6] [nM]	Kd [7] [nM]
MS1032LO06-SG1 (M103205H795-SG1/M103202L889-SK1) (antibody, human IgG1, kappa, Anti-latent myostatin antibody) heavy: not shown light: DIVMTQSPATLSLSPGERATLSCTSSQSVYHANWLSWFQQKPGQPPKLLIYWASTLAYGVPSRFSGSGSGTDFTLTISSLQPEDAATYYCAGGYGGGRYAFGQGTKVEIKRTVAAPSVFIFPPSDEQLKSGTASVVCLLNNFYPREAKVQWKVDNALQSGNSQESVTEQDSKDSTYSLSSTLTLSKADYEKHKVYACEVTHQGLSSPVTKSFNRGEC	4800	4700	8600	1900	890	1000	620
MS1032LO06-MY352 (M103205H795-MY352/M103202L889-SK1) (antibody, human IgG1, kappa, name in EU numbering, Printed substitutions: G236N/H268D/Q311R/A330K/D413R (EU numbering); also called MS103205H795-MY352) heavy: QVTLKESGPVLVKPTETLTLTCTVSGIDLSHDDISWVRQAPGKGLEWVGIISYAGSTYYASWAKGRLTISKDTSKNQVVLTMTNMDPVDTATYYCARGVPAYSHGGDLWGQGTLVTVSSASTKGPSVFPLAPSSKSTSGGTAALGCLVKDYFPEPVTVSWNSGALTSGVHTFPAVLQSSGLYSLSSVVTVPSSSLGTQTYICNVNHKPSNTKVDKKVEPKSCDKTHTCPPCPAPELLNGPSVFLFPPKPKDTLMISRTPEVTCVVVDVSDEDPEVKFNWYVDGVEVHNAKTKPREEQYNSTYRVVSVLTVLHRDWLNGKEYKCKVSNKALPKPIEKTISKAKGQPREPQVYTLPPSREEMTKNQVSLTCLVKGFYPSDIAVEWESNGQPENNYKTTPPVLDSDGSFFLYSKLTVRKSRWQQGNVFSCSVMHEALHNHYTQKSLSLSP light: DIVMTQSPATLSLSPGERATLSCTSSQSVYHANWLSWFQQKPGQPPKLLIYWASTLAYGVPSRFSGSGSGTDFTLTISSLQPEDAATYYCAGGYGGGRYAFGQGTKVEIKRTVAAPSVFIFPPSDEQLKSGTASVVCLLNNFYPREAKVQWKVDNALQSGNSQESVTEQDSKDSTYSLSSTLTLSKADYEKHKVYACEVTHQGLSSPVTKSFNRGEC	1700	1300	2200	420	1200	1600	11000
MS1032LO06-PK55 (M103205H795-PK55/M103202L889-SK1) (antibody, human IgG1, kappa, CH PK55 = SG1 with G236N/H268D/Q311R/A330K/P343R (EU numbering); also called MS103205H795-PK55) heavy: QVTLKESGPVLVKPTETLTLTCTVSGIDLSHDDISWVRQAPGKGLEWVGIISYAGSTYYASWAKGRLTISKDTSKNQVVLTMTNMDPVDTATYYCARGVPAYSHGGDLWGQGTLVTVSSASTKGPSVFPLAPSSKSTSGGTAALGCLVKDYFPEPVTVSWNSGALTSGVHTFPAVLQSSGLYSLSSVVTVPSSSLGTQTYICNVNHKPSNTKVDKKVEPKSCDKTHTCPPCPAPELLNGPSVFLFPPKPKDTLMISRTPEVTCVVVDVSDEDPEVKFNWYVDGVEVHNAKTKPREEQYNSTYRVVSVLTVLHRDWLNGKEYKCKVSNKALPKPIEKTISKAKGQRREPQVYTLPPSREEMTKNQVSLTCLVKGFYPSDIAVEWESNGQPENNYKTTPPVLDSDGSFFLYSKLTVDKSRWQQGNVFSCSVMHEALHNHYTQKSLSLSP light: DIVMTQSPATLSLSPGERATLSCTSSQSVYHANWLSWFQQKPGQPPKLLIYWASTLAYGVPSRFSGSGSGTDFTLTISSLQPEDAATYYCAGGYGGGRYAFGQGTKVEIKRTVAAPSVFIFPPSDEQLKSGTASVVCLLNNFYPREAKVQWKVDNALQSGNSQESVTEQDSKDSTYSLSSTLTLSKADYEKHKVYACEVTHQGLSSPVTKSFNRGEC	1400	1200	2000	360	830	1500	13000
MS1032LO06-MY201 (M103205H795-MY201/M103202L889-SK1) (antibody, human IgG1, kappa, CH MY201 = SG1 with G236N/H268D/A330K (EU numbering); also called MS103205H795-MY201) heavy: QVTLKESGPVLVKPTETLTLTCTVSGIDLSHDDISWVRQAPGKGLEWVGIISYAGSTYYASWAKGRLTISKDTSKNQVVLTMTNMDPVDTATYYCARGVPAYSHGGDLWGQGTLVTVSSASTKGPSVFPLAPSSKSTSGGTAALGCLVKDYFPEPVTVSWNSGALTSGVHTFPAVLQSSGLYSLSSVVTVPSSSLGTQTYICNVNHKPSNTKVDKKVEPKSCDKTHTCPPCPAPELLNGPSVFLFPPKPKDTLMISRTPEVTCVVVDVSDEDPEVKFNWYVDGVEVHNAKTKPREEQYNSTYRVVSVLTVLHQDWLNGKEYKCKVSNKALPKPIEKTISKAKGQPREPQVYTLPPSREEMTKNQVSLTCLVKGFYPSDIAVEWESNGQPENNYKTTPPVLDSDGSFFLYSKLTVDKSRWQQGNVFSCSVMHEALHNHYTQKSLSLSP light: DIVMTQSPATLSLSPGERATLSCTSSQSVYHANWLSWFQQKPGQPPKLLIYWASTLAYGVPSRFSGSGSGTDFTLTISSLQPEDAATYYCAGGYGGGRYAFGQGTKVEIKRTVAAPSVFIFPPSDEQLKSGTASVVCLLNNFYPREAKVQWKVDNALQSGNSQESVTEQDSKDSTYSLSSTLTLSKADYEKHKVYACEVTHQGLSSPVTKSFNRGEC	1500	1200	1800	330	980	1200	37000
MS1032LO06-MY351 (M103205H795-MY351/M103202L889-SK1) (antibody, human IgG1, kappa, CH MY351 = SG1 with G236N/H268D/Q311R/A330K/D413K (EU numbering); also called MS103205H795-MY351) heavy: QVTLKESGPVLVKPTETLTLTCTVSGIDLSHDDISWVRQAPGKGLEWVGIISYAGSTYYASWAKGRLTISKDTSKNQVVLTMTNMDPVDTATYYCARGVPAYSHGGDLWGQGTLVTVSSASTKGPSVFPLAPSSKSTSGGTAALGCLVKDYFPEPVTVSWNSGALTSGVHTFPAVLQSSGLYSLSSVVTVPSSSLGTQTYICNVNHKPSNTKVDKKVEPKSCDKTHTCPPCPAPELLNGPSVFLFPPKPKDTLMISRTPEVTCVVVDVSDEDPEVKFNWYVDGVEVHNAKTKPREEQYNSTYRVVSVLTVLHRDWLNGKEYKCKVSNKALPKPIEKTISKAKGQPREPQVYTLPPSREEMTKNQVSLTCLVKGFYPSDIAVEWESNGQPENNYKTTPPVLDSDGSFFLYSKLTVKKSRWQQGNVFSCSVMHEALHNHYTQKSLSLSP light: DIVMTQSPATLSLSPGERATLSCTSSQSVYHANWLSWFQQKPGQPPKLLIYWASTLAYGVPSRFSGSGSGTDFTLTISSLQPEDAATYYCAGGYGGGRYAFGQGTKVEIKRTVAAPSVFIFPPSDEQLKSGTASVVCLLNNFYPREAKVQWKVDNALQSGNSQESVTEQDSKDSTYSLSSTLTLSKADYEKHKVYACEVTHQGLSSPVTKSFNRGEC	1600	1300	2200	380	1200	1600	7400
